Earlier results on 2 substances are cited in article PMC6197867.

Series [1] has as its target LEN light chain variable domain VL (Homo sapiens) (UniProt P06312).
In series [2] the target is SMA light chain variable domain VL (Homo sapiens) (UniProt P06312).

pKd: −log10 of the molar value.

For the substance “LEN light chain variable domain VL (from UniProt P06312)”, in series [1], the pKd was 5.00.
As for “SMA light chain variable domain VL (from UniProt P06312)”, the pKd in series [2] is 4.40.

A word on the pKd: it is the negative decadic logarithm of the Kd, by convention in mol/L.
